Test: label from the status in PepcDB records
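Further: failed if final PepcDB status was selected cloned or expressed and not failed if soluble or beyond.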

Sequence | protein production
ASTVHEMGVFASLDDAVAAAKRAQQGLKSVAMRQLAIHAIREAGEKHARELAELAVSETGMGRVDDKFAKNVAQARGTPGVECLSPQVLTGDNGLTLIENAPWGVVASVTPSTNPAATVINNAISLIAAGNSVVFAPHPAAKKVSQRAITLLNQAVVAAGGPENLLVTVANPDIETAQRLFKYPGIGLLVVTGGEAVVDAARKHTNKRLIAAGAGNPPVVVDETADLPRAAQSIVKGASFDNN | failed
MVIDFSAFYELPRLIDRLAAEGESSFAASRGQAVFPPLNIGEDESAVYVRALIPGGDLSALDLTLTDKTLVLRGELPPVRGRYYRQERRTGPFQRVVLLNVPIDRDRVHAAMRDGVLEVVLPKAQQERLRTIHITTR | failed
MLVMKCSKCSAEAIYYAKYNGLYLCRDHFNEMIEGRVKKEIRKQVEFHGDDVTISVALSGGKDSSVTLFLLHKILGNRKNMKIKAFTVDEGIDGYRPSGLESAKRLCTSLGIDHETISFYDSYGLTLDSIVKTNPVKIPCAYCGPLRRKLINEMADKQDADYVALGLNLDDYSQSILMNVAKGDFDRFIRMSPQTDRKVGLVRRIAPLRTILEKEVVLYAVTNDIPFDSSWCPYYSRAQRNVFREVVNKLSEENPSTKFAILKFFDRVRENITTGHEEVKLKRCKICGAPTERDVCTACSSLQEVNEMMAEH | failed
MMLLLPEFGYVSLLLAVCVGVATALLTFSGYTLRWSGTYRLARCWTLVLFGLVLFAFVALTLSVVQDDFSVNYVAQHSHRDLPLGLKIAAVWGGHEGSLLLWLLCLSGWSATFACRYRKAMSDLFPLTLAMLAVIATALLVFIVFFSDPFVRLFPPAVAGRDLNPMLQHIGLILHPPLLYLGYGGLTVSAALALAALIHGEFTAPAAWICWRWTLPAWSLLTLGIILGSWWAYNELGWGGWWFWDPVENASLLPWLTASALLHSLSVTRMRGIFRHWSLILALLTFILCLLGTLIVRSGILVSVHAFALEHDRAVPLFILFACLSMAALAVYGWRAQLVHSAARFSGWSREMAILLVLLLFSAVALVVLLGTLYPMIYGLAGWGKISVGAPYFNRVLLPFAGLMLLLIGVAAGGYWKRSTRWPVWHLGVTLAVGVVTALVLWPYGYDVALASGLIGWVMAAQWLQPLLALRQQLPALLAHTGVVLFALGIAFSAGSKQEISANVGQGEQVTLGDYQFHFLQLDLVAAQNYTAEQAVIAIYRGDSPIARVIPERRYYNARKQQMIEPGIAWGPIREWYAVMGEKTGENRYAMRFYVQTGVRWVWGGGMLMVAGALLGWFRGRRVYD | failed
MKIQLDINGTEIQKGVWVGSGAIIEPGAILNPPCVIGDNCRIESGAVIDSLSVIGNNNVIERDSSVKRSVIWDGNYIEYGSKIRGAILCSKTNLKRYVHIFENAIVGDNCLINERVVIKPNIKIWPQKTVEPFAIVDRNIIWGSKLEHHHHHH | failed
MEISEYFKDWMELYKKNAIDEMTYKGYEQTLKYLKTYMPNVLISEITASSYQRALNKFAETHAKASTKGFHTRVRASIQPLIEEGRLQKDFTTRAVVKGLEHHHHHH | not failed
MIRMTKVDIISGFLGAGKTTFIKQLINQAFAGEKLVLIENEFGEIGIDGGFLKNAGIEITEMNSGCICCTLVGDFSKALKKVLEEYQPDRVIIEPSGVGKLSDIMKAIEDVKKDADIAIDGRITVVDGKKAKLYLKNFGEFFKDQVEHASAIVISRTQAMSDDKIEECVHMLRDENKEAAIISTPWAQLGKEAIIHALEKGSELAGLLEETHGQECCHHEHHHHEHEACGHEHHHHHADEIFTSWGKETAHKYTKEELDFMLKALSETEAYGTVLRSKGIIQMSDGSWRQFDLVPQEYEVREGQPDYTGRLCVIGTDLKEEELMTLFHLKLEHHHHHH | failed
MTAQLISPTIHGILDYLLGAVLVVAPSVLGLPTGPAVIAYAVGGAHLAMSLLTGYAPGALRVIPFWAHGAVEAAGWAGLLVFLGLLTAPADGLFLASGVGILVVSALTDYGVETDGVRLRARRHAHARP | failed
MAATTNFTKSMLFPFSHVSGNASLNSQRRTWPKQYKSKNGYRSLRVNGLFGGGNKDNNSEDGQSKAGIFGNMQNMYETVKKAQMVVQVEAVRVQKELAAAEFDGYCAGELVKVTLSGNQQPIRTDITEAAMELGSEKLSQLVTEAYKDAHAKSVVAMKERMSDLAQSLGMPPGLSEGMK | failed
MSASGLLVEKSGPLSLIQDFGRFGLAHIGITQGGPVDDYAYSWANHLLGNRVNCSAIEITLGNACFIALQDCHLAICGGDLNASVDGHPIANWSDFSIKKGQKLQFGMAKNGLRAYLAVKGGFNVPEHLGSSSTVLREALGGLEANGNALKAGDVLPFDAHSLPNHKPRIMTFRFKPDYNLPITLRVIEGYQCDDFSVEAKEKFYSGSFAISPDSNRMGYRLEGNTVKPPYDGILSEGIALGAIQIPHDGNPIVLLNDHQTIGGYPKLGCVARIDLPRLAQAKPGQKVRFVKGDRQGLQDVWCQWAQFFGY | failed
GLGFMALDEDLRIIYVNSGCLRHVRRSRDELLGRVVTEVLPETQGSYFDALCRKVLATGREQQTRVDSLYSPGMTIEVTAAADSGALVVHFRDVTAE | not failed
MEKFKYSLLVLFGACSYGILSTIFKLGFINGFSAHQLLGGQYVFGWIGLFLLVLFFSRHKVTKKQFFSLLTVGTTMSMTGIFYAISVEELPASIAVVLLFQFTWIGVIIEAIANRTFPSRDKIISILILFAGTLFAGGVFEGLGQSFSTKGIIFGLLAAVSFSFYVFASGRVATDVPPYTKSFLMTTSATLIVCLFFPPTFLTDGALQAGLWKYAFFLGLFGVVVPVICFSIGVPKVGTGLGTILGAAELPTAIIASITLVHEVVTFMQWIGIIFILVGIFIPQLLTARKERKQNRVHSA | failed
MSNDVDLIKRLGPSAMDQIMLYLAFSAMRTSGHRHGAFLDAAATAAKCAIYMTYLEQGQNLRMTGHLHHLEPKRVKAIVEEVRQALTEGKLLKMLGSQEPRYLIQFPYVWMEKYPWRPGRSRIPGTSLTSEEKRQIEQKLPSNLPDAHLITSFEFLELIEFLHKRSQEDLPKEHQMPLSEALAEHIKRRLLYSGTVTRIDSPWGMPFYALTRPFYAPADDQERTYIMVEDTARFFRMMRDWAEKRPNTMRVLEELDILPEKMQQAKDELDEIIRAWADKYHQDDGVPVVLQMVFGKKED | not failed
MITLAQAEVGKVYTVESVQADIQTKKHLNNLGVVAGQAVVLVNYQNQNGIVLLHNSRIALTDTILQAIHVEERSANEKVWVSLDTLKVGERATIVGIHGQGAVKRRLMDMGLTKGTVIFIRKVAPLADPIEINVRGYELTLRKSEAELILVEKEESELEHHHHHH | failed
MSEAIVTIVVVPRERFSCTQASLESIYEHTKIPFKLIYVDGNSPTKVRKYLQKQAQEKNFQLIRTDYYLSPNHARNIGLSHVDTKYLVFLDNDVIVSPGWLQALVNCAETTGATVVGPLMCEKEPIHERIHFAGGESHIVIDVKGRRHLREKMYKQGHQVSELRSQLQQTETELAEFHCTLIRREIFEQIGYLDEEMLNTKEHLDFCMNVIQAGGKVYFEPDSLVTYVPGPPLEWSDLHFYMLRWSDAWTLASLQRIRAKWNLSEDGYFQTKYKKLGVRRVATIIKPFVRQVSFGNENKPLKRFLKNLDRKLNRFLTDRYTEMLPQRKLELPIIKKEISSVKEFTQV | failed
MNRPGVLTSPGSIPLRPRRRDPSGPASARARVEARQRVGKILVVAGWIVSLAGVAIYCVTSFAAGADADLAAILIDGAIPAARAGLAVVGVGTLTWVVGSILHLNASLDAADAERDGPAEG | failed
MGHERDWSLVQVALTDITARKKAEAYLEYLGKHDVLTKLHNRAFYSDELNRLERSALRPVSAIVIDLNGLKEANDKLGHDAGDALLRRVGEVLNGVVTAPNHAARIGGDEFAILLPGADKQVAAAMVDTVYELLKINNQFYSSAPLSLSLGVATTEAGETMESLVRRADMNMYEQKNAYYAALRNRSADNNDTTKGLEHHHHHH | not failed
LRVFSSDGKLIAEFGEMRRTPIRFAEIPPNFINALLSAEDDNFANHYGVDPSSLMRAATQLVKSGHIQSGGSTITMQVAKNFFLTSERSFSRKTTEILLALQIERQLTKDEILELYVNKIYLGNRAYGIEAAAQVYYGKSIRDVSLAQMAMIAGLPKAPSRFNPLANA | failed
MRHTLPIAPQFYVTAPQSCPYLEGRLERKLFTALQGEHAQKLNDTLSKQGFRRSQNVLYRPSCAECSACLSARIRVADFEPTRTQRRVMKRNADLRRNATSPWATEDQYALFRRYLDDRHADGGMADMDIFEFAAMIEETPIRSRVIEYSRPGDTPSNRPLSAVCLTDIFDDGLSMVYSFYDPDLAGRSLGAYVILDHIEIAREAGLPYVYLGYWVPGSRKMGYKATYSALEIYKGGRWQAIGQPSDHRAELHPLSVDPIAEQVARISLPEARSGDRSRDLEHHHHHH | not failed
MKDRLINFFGSEWFGMAIATLAVAQTFFLASRYMENITLKYTGEIFFYLGIIIFLVIFILWTIRGLTIHDKKWSHWNNLTRLSFIALVPIILFVINHITIELYGINELMARLSLYNYFFSYFLALILGVLLGYRIYTKEINRNEINYAIIIPPLSIGTSIFLATPLIGYYHGTIAESIYFLVLMGLGIFFFLYIFIGSVALSGHVSNKSGSSLPTAMLPVGVSSLIIINLISINSFGAVIDHLPFSIYTVEFVSILLWGFEVWNFLVMMIIVFRKETFGYLSVWAYGFPLGLFATSTIKLEEVTKIVILGNIFIFIWVALVLLWFYGILNTYVFIRRGILGSHPDK | failed
ISLKYTAARLHEKGVLLEIEDLQVNQFKNVIFEISPTEEVGDFEVKAKFMGVQMETFMLHYQDLLQLQYEGVAVMKLFDRAKVNVNLLIFLLNKKFYGK | not failed
MAMVFCRGCAKEIHETALNCPQCGASQFPATPVKQLQENGSPWMAITSLVLGILCSLALFDDGEWDLETIVGLGMCSVAGLALGIVSINKKMPGYGIAIAGTVLSAVSLLVFFGLIVN | failed
MKSVQEKRNNTRAFKTVAKSWFATKTTWSEDYQRSVWTRLETYLFPDIGNKDIAELDTGDLLVPIKKIEKLGYLEIAMRVKQYATAIMRYAVQQKMIRFNPAYDLEGAVQKLEHHHHHH | not failed
MKVNILMATYNGEKFLAQQIESIQKQTFKEWNLLIRDDGSSDKTCDIIRNFTAKDSRIRFINENEHHNLGVIKSFFTLVNYEVADFYFFSDQDDVWLPEKLSVSLEAAKHKASDVPLLVYTDLKVVNQELNILQDSMIRAQSHHANTTLLPELTENTVTGGTMMINHALAEKWFTPNDILMHDWFLALLAASLGEIIYLDLPTQLYRQHDNNVLGARTMDKRFKILREGPKSIFTRYWKLIHDSQKQASLIVDKYGDIMTANDLELIKCFIKIDKQPFMTRLRWLWKYGYSKNQFKHQVVFKWLIATNYYNKRLEHHHHHH | not failed
MNRPAMPFANTVPGFLPFLNDEKGLRQESQQRYLYTLRPFEAYLNRGGIALSGLEPAHISRFLEERAKTLHKAGMRDTAGALRIFLRYLHREGIVATDLVRSVPRGRIYRQASIPRALEHHHHHH | failed
MSLDYDLLIKNGQTVNGMPVEIAIKEKKIAAVAATISGSAKETIHLEPGTYVSAGWIDDHVHCFEKMALYYDYPDEIGVKKGVTTVIDAGTTGAENIHEFYDLAQQAKTNVFGLVNISKWGIVAQDELADLSKVQASLVKKAIQELPDFVVGIKARMSRTVIGDNGITPLELAKQIQQENQEIPLMVHIGSAPPHLDEILALMEKGDVLTHCFNGKENGILDQATDKIKDFAWQAYNKGVVFDIGHGTDSFNFHVAETALREGMKAASISTDIYIRNRENGPVYDLATTMEKLRVVGYDWPEIIEKVTKAPAENFHLTQKGTLEIGKDADLTIFTIQAEEKTLTDSNGLTRVAKEQIRPIKTIIGGQIYDNEGHHHHHH | not failed

From a protein production outcome set (Wang et al. 2014)
